# Reference: paper PMC4359947 (The international journal of biochemistry & cell biology, 2015)
# Ends that are not written are not given here.
# Target: MAGI-1 PDZ1 domain, Cy3-labelled, tag-free (Cy3 label (approximately 1 dye/peptide))
# Test: FRET or BRET
binder,measurement,value
"GAIPVMIPAQSKDGSIV (also: Cy5 label (approximately 1 dye/peptide), site not given here) [CAR (CAR^Ex7) C-terminus, Cy5-labelled, tag-free]",Kd,> 500 nM
